Measured values reported in patent US20190142971A1, “FORMULATION AND DELIVERY OF MODIFIED NUCLEOSIDE, NUCLEOTIDE, AND NUCLEIC ACID COMPOSITIONS” (ModernaTX, Inc., priority 2013, published 2019).

Columns and labels:
[1] = tested on: non-human primates (cynomolgus monkey); assay: Example 22: NHP hematology: neutrophils, reticulocytes, HGB, HCT, RBC (Tables 40-44); type: in vivo
Experimental: LNP formulations, shown in Table 33 (above), were administered to non-human primates (NHP) (cynomolgus monkey) (n=2) as intravenous injection (IV). The NHP were administered a single modified mRNA IV dose of 0.5 mg/kg, 0.05 mg/kg or 0.005 mg/kg of G-CSF or EPO in a dose volume of 0.5 mL/kg. The NHPs were bled before dosing with the modified mRNA LNP formulations to determine protein expression in the serum and a baseline complete blood count. After administration with the G-CSF modified mRNA formulation the NHP were bled at 8, 24, 48 and 72 hours to determined protein expression. After administration with the EPO modified mRNA formulation the NHP were bled at 8, 24, 48, 72 hours and 7 days to determined protein expression.
Samples collected from the NHPs after they were administered with G-CSF or EPO modified mRNA formulations were analyzed by ELISA to determine protein expression. Neutrophil and reticulocyte count was also determined pre-dose, 24 hours, 3 days, 7 days, 14 days and 18 days after administration of the modified G-CSF or EPO formulation.

mice = assay: Example 41: IV lipoplexed G-CSF mRNA in mice, neutrophil count (Table 66); type: in vivo; conditions: IV 10% lipoplex, 50 ug at days 0, 2, 4; day 5
Experimental: Neutrophils were measured at days 1, 5 and 8. Controls included non-specific mammalian RNA or the formulation buffer alone (F.Buffer). The mice were bled at days 1, 5 and 8 to determine the effect of mRNA-encoded human G-CSF to increase neutrophil count. The dosing regimen is shown in Table 66 as are the resulting neutrophil counts (thousands/uL; K/uL).

[2] = 0.05 mg/kg, 14/18 days, Female NHP
[3] = 0.05 mg/kg, 14/18 days, Male NHP
[4] = 0.05 mg/kg, 24 hours, Female NHP
[5] = 0.05 mg/kg, Pre-dose, Female NHP
[6] = 0.5 mg/kg, 14/18 days, Female NHP
[7] = 0.5 mg/kg, 14/18 days, Male NHP
[8] = 0.5 mg/kg, 24 hours, Female NHP
[9] = 0.5 mg/kg, Pre-dose, Female NHP

B1: G-CSF: modified mRNA encoding human G-CSF, SEQ ID NO: 4, Cap1, fully modified with 5-methylcytosine and pseudouridine; LNP-formulated in Examples 16-22 (nucleic acid)
chain: GGGAAAUAAGAGAGAAAAGAAGAGUAAGAAGAAAUAUAAGAGCCACCAUGGCCGGUCCCGCGACCCAAAGCCCCAUGAAACUUAUGGCCCUGCAGUUGCUGCUUUGGCACUCGGCCCUCUGGACAGUCCAAGAAGCGACUCCUCUCGGACCUGCCUCAUCGUUGCCGCAGUCAUUCCUUUUGAAGUGUCUGGAGCAGGUGCGAAAGAUUCAGGGCGAUGGAGCCGCACUCCAAGAGAAGCUCUGCGCGACAUACAAACUUUGCCAUCCCGAGGAGCUCGUACUGCUCGGGCACAGCUUGGGGAUUCCCUGGGCUCCUCUCUCGUCCUGUCCGUCGCAGGCUUUGCAGUUGGCAGGGUGCCUUUCCCAGCUCCACUCCGGUUUGUUCUUGUAUCAGGGACUGCUGCAAGCCCUUGAGGGAAUCUCGCCAGAAUUGGGCCCGACGCUGGACACGUUGCAGCUCGACGUGGCGGAUUUCGCAACAACCAUCUGGCAGCAGAUGGAGGAACUGGGGAUGGCACCCGCGCUGCAGCCCACGCAGGGGGCAAUGCCGGCCUUUGCGUCCGCGUUUCAGCGCAGGGCGGGUGGAGUCCUCGUAGCGAGCCACCUUCAAUCAUUUUUGGAAGUCUCGUACCGGGUGCUGAGACAUCUUGCGCAGCCGUGAAGCGCUGCCUUCUGCGGGGCUUGCCUUCUGGCCAUGCCCUUCUUCUCUCCCUUGCACCUGUACCUCUUGGUCUUUGAAUAAAGCCUGAGUAGGAAG
modifications: Cap1, 5-methylcytosine, pseudouridine
[1]; 0.05 mg/kg IV, Pre-dose
  Female NHP Neutrophils: 3.05 10^9/L
  Male NHP HGB: 137 g/L
  Male NHP Neutrophils: 13.74 10^9/L
[1]; [2]
  HCT: 0.4 L/L
  RBC: 5.26 10^12/L
[1]; [3]
  HCT: 0.44 L/L
  RBC: 5.43 10^12/L
[1]; [4]
  HCT: 0.4 L/L
  RBC: 5.08 10^12/L
[1]; 0.05 mg/kg, 24 hours, Male NHP
  HCT: 0.39 L/L
  RBC: 4.96 10^12/L
[1]; 0.05 mg/kg, 3 days, Female NHP
  HCT: 0.39 L/L
  RBC: 5.04 10^12/L
[1]; 0.05 mg/kg, 3 days, Male NHP
  HCT: 0.41 L/L
  RBC: 5.13 10^12/L
[1]; 0.05 mg/kg, 7 days, Female NHP
  HCT: 0.4 L/L
  RBC: 5.05 10^12/L
[1]; 0.05 mg/kg, 7 days, Male NHP
  HCT: 0.42 L/L
  RBC: 5.17 10^12/L
[1]; [5]
  HCT: 0.44 L/L
  RBC: 5.64 10^12/L
[1]; 0.05 mg/kg, Pre-dose, Male NHP
  HCT: 0.44 L/L
  RBC: 5.68 10^12/L
[1]; 0.5 mg/kg IV, 14/18 days
  Female NHP HGB: 113 g/L
  Female NHP Neutrophils: 1.98 10^9/L
  Male NHP HGB: 98 g/L
  Male NHP Neutrophils: 2.58 10^9/L
[1]; 0.5 mg/kg IV, 24 hours
  Female NHP HGB: 112 g/L
  Female NHP Neutrophils: 13.96 10^9/L
  Male NHP HGB: 113 g/L
  Male NHP Neutrophils: 14.92 10^9/L
[1]; 0.5 mg/kg IV, 3 days
  Female NHP HGB: 114 g/L
  Female NHP Neutrophils: 13.7 10^9/L
  Male NHP HGB: 118 g/L
  Male NHP Neutrophils: 9.76 10^9/L
[1]; 0.5 mg/kg IV, 7 days
  Female NHP HGB: 116 g/L
  Female NHP Neutrophils: 3.81 10^9/L
  Male NHP HGB: 115 g/L
  Male NHP Neutrophils: 2.74 10^9/L
[1]; 0.5 mg/kg IV, Pre-dose
  Female NHP HGB: 129 g/L
  Female NHP Neutrophils: 1.27 10^9/L
  Male NHP HGB: 133 g/L
  Male NHP Neutrophils: 1.53 10^9/L
[1]; [6]
  HCT: 0.37 L/L
  RBC: 4.92 10^12/L
[1]; [7]
  HCT: 0.34 L/L
  RBC: 4.21 10^12/L
[1]; [8]
  HCT: 0.38 L/L
  RBC: 4.96 10^12/L
[1]; 0.5 mg/kg, 24 hours, Male NHP
  HCT: 0.37 L/L
  RBC: 4.66 10^12/L
[1]; 0.5 mg/kg, 3 days, Female NHP
  HCT: 0.38 L/L
  RBC: 4.97 10^12/L
[1]; 0.5 mg/kg, 3 days, Male NHP
  HCT: 0.39 L/L
  RBC: 4.91 10^12/L
[1]; 0.5 mg/kg, 7 days, Female NHP
  HCT: 0.38 L/L
  RBC: 5.04 10^12/L
[1]; 0.5 mg/kg, 7 days, Male NHP
  HCT: 0.39 L/L
  RBC: 4.8 10^12/L
[1]; [9]
  HCT: 0.43 L/L
  RBC: 5.57 10^12/L
[1]; 0.5 mg/kg, Pre-dose, Male NHP
  HCT: 0.46 L/L
  RBC: 5.57 10^12/L
[1]; all dose groups
  neutrophils relative to pre-dose levels: increase in neutrophils
mice
  increase in neutrophil count above control: four to five fold increase
